How the values were obtained:
Experiment in all cases: purified protein, by the assay type
[1] = system: CC(=O)N[C@H]1[C@H]([C@H](O)[C@H](O)CO)O[C@@](OCCCNC(=O)OCc2ccccc2)(C(=O)O)C[C@@H]1O[C@H]1O[C@H](CO[C@]2(C(=O)O)C[C@H](O)[C@@H](NC(C)=O)[C@H]([C@H](O)[C@H](O)CO)O2)[C@H](O)[C@H](O)[C@H]1O; conditions: other: apparent, varying acceptor, 2 mM UDP-Gal, pH 6.5, 30° C.
[2] = system: CC(=O)N[C@H]1[C@H]([C@H](O)[C@H](O)CO)O[C@@](OCCCNC(=O)OCc2ccccc2)(C(=O)O)C[C@@H]1O[C@H]1O[C@H](CO[C@]2(C(=O)O)C[C@H](O[C@H]3O[C@H](CO[C@]4(C(=O)O)C[C@H](O)[C@@H](NC(C)=O)[C@H]([C@H](O)[C@H](O)CO)O4)[C@H](O)[C@H](O)[C@H]3O)[C@@H](NC(C)=O)[C@H]([C@H](O)[C@H](O)CO)O2)[C@H](O)[C@H](O)[C@H]1O; conditions: other: apparent, varying acceptor, 2 mM UDP-Gal, pH 6.5, 30° C.
[3] = system: CC(=O)N[C@H]1[C@H]([C@H](O)[C@H](O)CO)O[C@@](OCCCNC(=O)OCc2ccccc2)(C(=O)O)C[C@@H]1O; conditions: other: apparent, varying acceptor, 2 mM UDP-Gal, pH 6.5, 30° C.
[4] = system: CC(=O)N[C@H]1[C@H]([C@H](O)[C@H](O)CO)O[C@@](OCCCNC(=O)OCc2ccccc2)(C(=O)O)C[C@@H]1O[C@H]1O[C@H](CO)[C@H](O)[C@H](O)[C@H]1O; conditions: other: apparent, varying acceptor, 10 mM CMP-Neu5Ac, pH 8.0, 30° C.
[5] = system: CC(=O)N[C@H]1[C@H]([C@H](O)[C@H](O)CO)O[C@@](OC[C@H]2O[C@H](O[C@H]3C[C@](OCCCNC(=O)OCc4ccccc4)(C(=O)O)O[C@@H]([C@H](O)[C@H](O)CO)[C@@H]3NC(C)=O)[C@H](O)[C@@H](O)[C@H]2O)(C(=O)O)C[C@@H]1O[C@H]1O[C@H](CO)[C@H](O)[C@H](O)[C@H]1O; conditions: other: apparent, varying acceptor, 10 mM CMP-Neu5Ac, pH 8.0, 30° C.
[6] = system: CC(=O)N[C@H]1[C@H]([C@H](O)[C@H](O)CO)O[C@@](OC[C@H]2O[C@H](O[C@H]3C[C@](OC[C@H]4O[C@H](O[C@H]5C[C@](OCCCNC(=O)OCc6ccccc6)(C(=O)O)O[C@@H]([C@H](O)[C@H](O)CO)[C@@H]5NC(C)=O)[C@H](O)[C@@H](O)[C@H]4O)(C(=O)O)O[C@@H]([C@H](O)[C@H](O)CO)[C@@H]3NC(C)=O)[C@H](O)[C@@H](O)[C@H]2O)(C(=O)O)C[C@@H]1O[C@H]1O[C@H](CO)[C@H](O)[C@H](O)[C@H]1O; conditions: other: apparent, varying acceptor, 10 mM CMP-Neu5Ac, pH 8.0, 30° C.
[7] = system: CC(=O)N[C@H]1[C@H]([C@H](O)[C@H](O)CO)O[C@@](OC[C@H]2O[C@H](O[C@H]3C[C@](OC[C@H]4O[C@H](O[C@H]5C[C@](OC[C@H]6O[C@H](O[C@H]7C[C@](OCCCNC(=O)OCc8ccccc8)(C(=O)O)O[C@@H]([C@H](O)[C@H](O)CO)[C@@H]7NC(C)=O)[C@H](O)[C@@H](O)[C@H]6O)(C(=O)O)O[C@@H]([C@H](O)[C@H](O)CO)[C@@H]5NC(C)=O)[C@H](O)[C@@H](O)[C@H]4O)(C(=O)O)O[C@@H]([C@H](O)[C@H](O)CO)[C@@H]3NC(C)=O)[C@H](O)[C@@H](O)[C@H]2O)(C(=O)O)C[C@@H]1O[C@H]1O[C@H](CO)[C@H](O)[C@H](O)[C@H]1O; conditions: other: apparent, varying acceptor, 10 mM CMP-Neu5Ac, pH 8.0, 30° C.
[8] = system: CC(=O)N[C@H]1[C@H]([C@H](O)[C@H](O)CO)O[C@@](OC[C@H]2O[C@H](O[C@H]3C[C@](OC[C@H]4O[C@H](O[C@H]5C[C@](OC[C@H]6O[C@H](O[C@H]7C[C@](OC[C@H]8O[C@H](O[C@H]9C[C@](OCCCNC(=O)OCc%10ccccc%10)(C(=O)O)O[C@@H]([C@H](O)[C@H](O)CO)[C@@H]9NC(C)=O)[C@H](O)[C@@H](O)[C@H]8O)(C(=O)O)O[C@@H]([C@H](O)[C@H](O)CO)[C@@H]7NC(C)=O)[C@H](O)[C@@H](O)[C@H]6O)(C(=O)O)O[C@@H]([C@H](O)[C@H](O)CO)[C@@H]5NC(C)=O)[C@H](O)[C@@H](O)[C@H]4O)(C(=O)O)O[C@@H]([C@H](O)[C@H](O)CO)[C@@H]3NC(C)=O)[C@H](O)[C@@H](O)[C@H]2O)(C(=O)O)C[C@@H]1O[C@H]1O[C@H](CO)[C@H](O)[C@H](O)[C@H]1O; conditions: other: apparent, varying acceptor, 10 mM CMP-Neu5Ac, pH 8.0, 30° C.

Substance	Km [1]	kcat [1]	kcat/Km [1]	Km [2]	kcat [2]	kcat/Km [2]	kcat/Km [3]	Km [4]	kcat [4]	kcat/Km [4]	Km [5]	kcat [5]	kcat/Km [5]	kcat [6]	kcat [7]	kcat [8]
NmSiaDW galactosyltransferase activity (Neisseria meningitidis)	890 ± 100 µM	8.8 ± 0.4 s⁻¹	10000 M⁻¹ s⁻¹	100 ± 20 µM	5.3 ± 0.2 s⁻¹	51000 M⁻¹ s⁻¹	47 M⁻¹ s⁻¹	–	–	–	–	–	–	–	–	–
NmSiaDW sialyltransferase activity (Neisseria meningitidis)	–	–	–	–	–	–	–	180 ± 40 µM	9.76 ± 0.55 s⁻¹	55000 M⁻¹ s⁻¹	240 ± 40 µM	23.1 ± 1.1 s⁻¹	97000 M⁻¹ s⁻¹	7.03 to 11.9 s⁻¹	7.03 to 11.9 s⁻¹	7.03 to 11.9 s⁻¹

Reference: patent US20220145343A1 (priority 2019, published 2022)
